Results reported in patent US20070128190A1 (GLENMARK PHARMACEUTICALS S A, published 2007).
Numbering of substitutions follows the chain as printed. Numbers in names are those of the source.

B1: TMC-2206 VH D100R variant antibody (antibody, V domains shown)
VH: QVQLKESGPGLVAPSQSLSITCTVSGFSLTNYGIHWVRQPPGKGLEWLGVIWARGFTNYNSALMSRLIITKDNSQSQVFLKMNSLQPDDSATYFCARANRGVYYAMDYWGQGTSVTVSS
VL: QFVLTQSPAFLSASPGEKVTMTCSANSSVNYIHWYQQKSGTSPKKWIYDTSKLASGVPVRFSGSGSGTSYSLTISSMETEDAATYYCQQWTTNPLTFGAGTRVELK
notes: variant murine VH-containing antibody; also called reverse charge mutant D100R
B2: humanized TMC-2206 variant hVH1.0/hVL3.0 (antibody, human IgG1, V domains shown)
VH: QVQLQESGPGLVKPSETLSLTCTVSGFSLTNYGIHWVRQPPGKGLEWLGVIWARGFTNYNSALMSRLTISKDNSKNQVSLKLSSVTAADTAVYFCARANDGVYYAMDYWGQGTLVTVSS
VL: QFVLTQSPAFLSVTPGEKVTITCSANSSVNYIHWYQQKPDQAPKLLIYDTSKLASGVPSRFSGSGSGTDYTFTISSLEAEDAATYYCQQWTTNPLTFGQGTKVEIK
notes: human IgG1/κ constant regions; also called VH1.0/VL3.0
B3: humanized TMC-2206 variant hVH1.0/hVL4.0 (antibody, human IgG1, V domains shown)
VH: B2 VH
VL: B2 VL with Q1D, F2V, L4M, L45K, L46W
notes: human IgG1/κ constant regions
B4: humanized TMC-2206 variant hVH3.0/hVL1.0 (antibody, human IgG1, V domains shown)
VH: B2 VH with L67V, K71V, N73T, V78F
VL: B2 VL with L45K, L46W
notes: human IgG1/κ constant regions
B5: humanized TMC-2206 variant hVH3.0/hVL3.0 (antibody, human IgG1, V domains shown)
VH: B2 VH with L67V, K71V, N73T, V78F
VL: B2 VL
notes: human IgG1/κ constant regions
B6: humanized TMC-2206 variant hVH3.0/hVL4.0 (antibody, human IgG1, V domains shown)
VH: B2 VH with L67V, K71V, N73T, V78F
VL: B2 VL with Q1D, F2V, L4M, L45K, L46W
notes: human IgG1/κ constant regions
B7: humanized TMC-2206 variant hVH4.0/hVL1.0 (antibody, human IgG1, V domains shown)
VH: B2 VH with V37I, L48I
VL: B2 VL with L45K, L46W
notes: human IgG1/κ constant regions
B8: humanized TMC-2206 variant hVH4.0/hVL3.0 (antibody, human IgG1, V domains shown)
VH: B2 VH with V37I, L48I
VL: B2 VL
notes: human IgG1/κ constant regions
B9: humanized TMC-2206 variant hVH4.0/hVL4.0 (antibody, human IgG1, V domains shown)
VH: B2 VH with V37I, L48I
VL: B2 VL with Q1D, F2V, L4M, L45K, L46W
notes: human IgG1/κ constant regions
B10: humanized TMC-2206 variant hVH1.0/hVL1.0Q (antibody, human IgG1, V domains shown)
VH: B2 VH
VL: B2 VL with N26Q, L45K, L46W
notes: human IgG1/κ constant regions; also called VH 1.0 VL 1.0Q
B11: humanized TMC-2206 variant hVH12.0/hVL10.0 (antibody, human IgG1, V domains shown)
VH: B2 VH with V37I, F94Y
VL: B2 VL with Q1D, L4M, L45K
notes: human IgG1/κ constant regions; also called VH 12.0 VL 10.0
B12: humanized TMC-2206 variant hVH14.0/hVL10.0 (antibody, human IgG1, V domains shown)
VH: B2 VH with V37I, L67V, F94Y
VL: B2 VL with Q1D, L4M, L45K
notes: human IgG1/κ constant regions; also called VH 14.0 VL 10.0
B13: humanized TMC-2206 variant hVH14.0/hVL12.0 (antibody, human IgG1, V domains shown)
VH: B2 VH with V37I, L67V, F94Y
VL: B2 VL with Q1D, L4M, L45K, Y70F
notes: human IgG1/κ constant regions; also called VH 14.0 VL 12.0
B14: humanized TMC-2206 variant hVH14.0/hVL12.0Q (antibody, human IgG1, V domains shown)
VH: B2 VH with V37I, L67V, F94Y
VL: B2 VL with Q1D, L4M, N26Q, L45K, Y70F
notes: human IgG1/κ constant regions; also called VH 14.0 VL 12.0Q

What follows are binders tested against T1, human platelet α2β1 integrin (immobilized on microtiter plates) (human, UniProt P17301 30-1181; P05556 21-798) (assay: competition with Eu-TMC-2206 on human platelet α2β1-coated plate).
T1 construct: plates custom-coated with human platelet α2β1 by GTI Inc; also called immobilized α2β1 integrin; α2β1-coated plates
T1 sequence (P17301 30-1181 E534K limits assumed, chain 1 of 2): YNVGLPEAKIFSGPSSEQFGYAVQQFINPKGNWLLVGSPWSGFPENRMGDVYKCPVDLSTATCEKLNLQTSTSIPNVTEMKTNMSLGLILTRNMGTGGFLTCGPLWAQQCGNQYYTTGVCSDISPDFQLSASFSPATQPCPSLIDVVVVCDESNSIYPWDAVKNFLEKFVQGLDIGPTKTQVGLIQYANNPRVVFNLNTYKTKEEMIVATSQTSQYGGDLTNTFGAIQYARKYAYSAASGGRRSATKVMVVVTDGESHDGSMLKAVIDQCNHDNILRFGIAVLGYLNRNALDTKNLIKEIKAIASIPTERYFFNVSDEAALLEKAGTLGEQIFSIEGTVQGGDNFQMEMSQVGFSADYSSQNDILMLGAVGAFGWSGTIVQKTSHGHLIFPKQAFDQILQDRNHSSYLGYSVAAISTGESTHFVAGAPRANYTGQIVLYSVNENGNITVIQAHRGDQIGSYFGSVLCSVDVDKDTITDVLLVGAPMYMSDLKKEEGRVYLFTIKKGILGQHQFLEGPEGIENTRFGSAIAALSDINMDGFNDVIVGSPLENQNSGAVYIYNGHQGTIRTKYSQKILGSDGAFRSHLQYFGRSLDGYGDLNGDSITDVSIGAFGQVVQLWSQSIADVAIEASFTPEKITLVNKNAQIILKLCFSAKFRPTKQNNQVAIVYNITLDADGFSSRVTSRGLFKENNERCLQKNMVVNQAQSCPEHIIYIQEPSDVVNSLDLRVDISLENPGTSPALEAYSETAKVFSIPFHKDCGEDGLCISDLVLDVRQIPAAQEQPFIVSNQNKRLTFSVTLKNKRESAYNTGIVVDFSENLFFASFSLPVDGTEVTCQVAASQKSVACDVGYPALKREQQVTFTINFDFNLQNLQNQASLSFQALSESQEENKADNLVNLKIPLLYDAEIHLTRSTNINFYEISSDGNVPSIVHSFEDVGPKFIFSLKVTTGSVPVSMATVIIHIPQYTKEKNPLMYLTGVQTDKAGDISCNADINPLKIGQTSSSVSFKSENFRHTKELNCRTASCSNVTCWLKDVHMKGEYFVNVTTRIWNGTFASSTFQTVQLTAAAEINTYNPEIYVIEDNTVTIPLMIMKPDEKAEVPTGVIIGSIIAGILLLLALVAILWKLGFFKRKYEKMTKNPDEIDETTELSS
T1 sequence (P05556 21-798 limits assumed, chain 2 of 2): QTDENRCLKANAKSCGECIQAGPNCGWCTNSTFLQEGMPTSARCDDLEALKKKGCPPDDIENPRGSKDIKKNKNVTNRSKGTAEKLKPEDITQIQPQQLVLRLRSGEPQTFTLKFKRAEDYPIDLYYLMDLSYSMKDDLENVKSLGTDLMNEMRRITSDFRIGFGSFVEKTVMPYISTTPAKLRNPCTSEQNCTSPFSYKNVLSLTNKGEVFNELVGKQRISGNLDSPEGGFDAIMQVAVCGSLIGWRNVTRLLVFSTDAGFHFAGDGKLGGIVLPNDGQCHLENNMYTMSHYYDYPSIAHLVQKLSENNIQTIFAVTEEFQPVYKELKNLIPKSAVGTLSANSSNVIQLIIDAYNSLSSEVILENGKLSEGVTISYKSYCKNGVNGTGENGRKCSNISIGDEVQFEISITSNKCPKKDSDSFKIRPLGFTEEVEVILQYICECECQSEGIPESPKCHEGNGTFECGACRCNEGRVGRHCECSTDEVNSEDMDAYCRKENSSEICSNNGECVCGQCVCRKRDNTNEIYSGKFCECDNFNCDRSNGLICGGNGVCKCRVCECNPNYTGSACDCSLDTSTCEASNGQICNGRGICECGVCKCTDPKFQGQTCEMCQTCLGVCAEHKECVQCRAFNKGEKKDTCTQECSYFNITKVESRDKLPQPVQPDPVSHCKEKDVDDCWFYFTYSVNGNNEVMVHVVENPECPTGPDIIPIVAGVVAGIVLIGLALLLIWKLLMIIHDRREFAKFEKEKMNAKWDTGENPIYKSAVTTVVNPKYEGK

Question: How did the Ki turn out when B1 was run?
Answer: 0.41 nM

Target: T1, human platelet α2β1 integrin …
Assay: as above
Remark: another data set of the same source
Procedure: (§1) Each labeled antibody mixture was applied to a separate PD-10 column (GE Biosciences, Piscataway, N.J.) pre-equilibrated with Running Buffer (50 mM Tris, pH 7.4 and 138 mM NaCl). Fractions (0.5 mL) were collected and assayed for total protein (Bradford reagent; Bio-Rad Laboratories, Hercules, Calif.) using a SpectraMax 384 absorbance plate reader and for europium after 1:10.000 dilution in DELFIA Enhancement Solution (Perkin-Elmer) by time-resolved fluorescence (TRF) using a Victor2 multi-label plate reader (Perkin Elmer). The fractions that were positive for both protein and Eu label were pooled and applied to new PD-10 columns and samples collected and assayed for total protein and for europium content by TRF calibrated against a europium standard solution (Perkin-Elmer) to calculate the fluor: protein ratio. […] After incubating the sealed plates for 1 hr at 37° C. to allow binding to reach equilibrium, 2 μL samples were transferred from each well into a fresh well containing DELFIA Enhancement Solution (100 μL/well; Perkin-Elmer) for the measurement of free (unbound) label. Enhancement Solution (100 μL/well) was added to the emptied wells for the measurement of bound label. The plate was shaken (Titer Plate Shaker speed setting of 5 for 5 minutes at room temperature) and time-resolved fluorescent (TRF) intensities were read using a Victor2 multi-label plate reader (Perkin-Elmer Wallac, Boston, Mas.).

Question: For B2, which Ki is on record?
Answer: 0.64 nM

Question: And the “fold shift in potency compared to the hVH1.0, hVL1.0 variant” value (shortened to “fold shift in potency”)?
Answer: 1.9 fold

Question: What does the source list for B3?
Answer: Ki: 1.4 nM; fold shift in potency compared to the hVH1.0, hVL1.0 variant: 4.2 fold

Question: B4 was tested. Which Ki did it give?
Answer: 12 nM

Question: What about the “fold shift in potency” value of the same binder?
Answer: 36 fold

Question: How did the Ki turn out when B5 was run?
Answer: 202 nM

Question: What about the “fold shift in potency” value of the same binder?
Answer: 631 fold

Question: For B6, which Ki is on record?
Answer: 118 nM

Question: What about the “fold shift in potency” value of the same binder?
Answer: 358 fold

Question: B7 was tested. Which Ki did it give?
Answer: 0.44 nM

Question: What about the “fold shift in potency” value of the same binder?
Answer: 1.3 fold

Question: How did the Ki turn out when B8 was run?
Answer: 1.34 nM

Question: And the “fold shift in potency” value?
Answer: 4.2 fold

Question: Which Ki does the source give for B9 here?
Answer: 2.6 nM

Question: What about the “fold shift in potency” value of the same binder?
Answer: 7.9 fold

Target: T1, human platelet α2β1 integrin …
Assay: as above
Remark: another data set of the same source
Procedure: as §1

Question: For B10, which Ki is on record?
Answer: 0.35 nM

Question: For B11, which Ki is on record?
Answer: 0.29 nM

Question: For B12, which Ki is on record?
Answer: 0.32 nM

Question: Which Ki does the source give for B13 here?
Answer: 0.38 nM

Question: With B14 as the binder, how does the Ki read?
Answer: 0.33 nM
